Experimental data taken from patent US20240116985A1 (published 2024).
Starred links: 1 amine or outer side, 2 acyl side, 3 side chain; linkers in the order of their positions; H or OH if unused. Positions of bridges follow the written chain, without caps; N, C: chain ends. Non-standard residues stand in square brackets, D forms with d. Primed or numbered codes have the meaning given here. B5(29) = 2-amino-2-(pent-4-en-1-yl)hept-6-enoic acid (2,2-bis(4-pentenyl)glycine), stitching residue bearing both staples, C=CCCCC(CCCC=C)(N[*:1])C(=O)[*:2]; B5(4) = 2,2-bis(4-pentenyl)glycine = 2-amino-2-(pent-4-en-1-yl)hept-6-enoic acid (stitching residue), C=CCCCC(CCCC=C)(N[*:1])C(=O)[*:2]; B5(6) = 2-amino-2-(pent-4-en-1-yl)hept-6-enoic acid (bis(4-pentenyl)glycine), stitching residue, C=CCCCC(CCCC=C)(N[*:1])C(=O)[*:2]; Phe(4-F) = N[C@@H](Cc1ccc(F)cc1)C(=O)O; Bta = N[C@@H](Cc1csc2ccccc12)C(=O)O; αAllylPro = C=CC[C@@]1(C(=O)O)CCCN1; S8 = C=CCCCCCC[C@](C)(N)C(=O)O; hSer = N[C@@H](CCO)C(=O)O

T1: full-length beta-Catenin (Uniprot ID P35222) (Homo sapiens (Human), UniProt P35222 1-781)
T1 construct: The assay protocols call it full-length; also called B-Catenin; bCat
T1 sequence: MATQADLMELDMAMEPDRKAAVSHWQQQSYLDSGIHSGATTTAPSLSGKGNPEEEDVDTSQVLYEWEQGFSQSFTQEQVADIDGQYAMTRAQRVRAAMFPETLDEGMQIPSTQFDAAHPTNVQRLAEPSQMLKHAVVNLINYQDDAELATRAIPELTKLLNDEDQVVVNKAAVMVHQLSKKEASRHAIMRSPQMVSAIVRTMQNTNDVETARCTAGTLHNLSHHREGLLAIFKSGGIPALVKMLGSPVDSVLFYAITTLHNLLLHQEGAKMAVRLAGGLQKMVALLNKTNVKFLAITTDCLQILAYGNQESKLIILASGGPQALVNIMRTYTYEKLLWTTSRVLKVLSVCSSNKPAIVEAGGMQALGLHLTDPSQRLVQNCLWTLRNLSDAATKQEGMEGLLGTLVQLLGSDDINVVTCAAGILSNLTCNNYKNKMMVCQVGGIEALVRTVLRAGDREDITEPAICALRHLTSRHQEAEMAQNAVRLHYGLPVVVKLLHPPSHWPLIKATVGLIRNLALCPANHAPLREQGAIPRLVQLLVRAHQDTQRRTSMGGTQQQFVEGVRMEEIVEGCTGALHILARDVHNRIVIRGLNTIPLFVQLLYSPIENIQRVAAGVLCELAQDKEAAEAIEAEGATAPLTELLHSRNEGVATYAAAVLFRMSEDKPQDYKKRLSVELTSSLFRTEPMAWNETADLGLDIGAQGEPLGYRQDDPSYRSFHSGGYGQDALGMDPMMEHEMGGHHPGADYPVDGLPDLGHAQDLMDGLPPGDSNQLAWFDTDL

T2: full-length beta-Catenin (Uniprot ID P35222) (Homo sapiens (Human), UniProt P35222 1-781)
T2 construct: Used full-length in the fluorescence polarization probe solution (10 nM); also called bCat; B-Catenin
T2 sequence: T1 sequence

B1: I-266 (peptide)
peptide: Ac-[αAllylPro]DA[B5(4)]DDAA[Phe(4-F)]V[S8]FWQ-NH2
modifications: staple 1-4, 4-11
notes: Stapled (stitched) peptide; also called Ac-PL3-Asp-Ala-B5-Asp-Asp-Ala-Ala-4FF-Val-S8-Phe-Trp-Gln-NH2
B2: I-275 (peptide)
peptide: XDAXDDAAFVXXWQ
modifications: not fully specified; N-terminal Ac; PL3 at 1; B5 at 4; S8 at 11; 1NapA at 12; C-terminal NH2; staples PL3(1)-B5(4) and B5(4)-S8(11) by olefin metathesis
notes: Stapled (stitched) peptide; also called Ac-PL3-Asp-Ala-B5-Asp-Asp-Ala-Ala-Phe-Val-S8-1NapA-Trp-Gln-NH2
B3: I-479 (peptide)
peptide: XDAXDEAAFNXFXH
modifications: not fully specified; Ac-PL3-Asp-Ala-B5-Asp-Glu-Ala-Ala-Phe-Asn-S8-Phe-BztA-1MeH-NH2; N-terminal acetyl, C-terminal amide; stapled PL3-B5 and B5-S8
notes: Stapled peptide composition
B4: I-478 (peptide)
peptide: XDAXDEAAFNXFXH
modifications: not fully specified; Ac-PL3-Asp-Ala-B5-Asp-Glu-Ala-Ala-Phe-Asn-S8-Phe-BztA-1MeH-NH2; N-terminal acetyl, C-terminal amide; stapled PL3-B5 and B5-S8
notes: Stapled peptide composition
B5: I-475 (peptide)
peptide: XDIXDEAAFNXFXQ
modifications: not fully specified; Ac-PL3-Asp-aIle-B5-Asp-Glu-Ala-Ala-Phe-Asn-S8-Phe-BztA-Gln-NH2; N-terminal acetyl, C-terminal amide; stapled PL3-B5 and B5-S8
notes: Stapled peptide composition
B6: I-495 (peptide)
peptide: XDIXDEAAFQXFXN
modifications: not fully specified; Ac-PL3-Asp-Ile-B5-Asp-Glu-Ala-Ala-Phe-Gln-S8-Phe-BztA-Asn-NH2; N-terminal acetyl, C-terminal amide; stapled PL3-B5 and B5-S8
notes: Stapled peptide composition
B7: I-476 (peptide)
peptide: XDIXDEAAFNXFXQ
modifications: not fully specified; Ac-PL3-Asp-aIle-B5-Asp-Glu-Ala-Ala-Phe-Asn-S8-Phe-BztA-Gln-NH2; N-terminal acetyl, C-terminal amide; stapled PL3-B5 and B5-S8
notes: Stapled peptide composition
B8: I-494 (peptide)
peptide: XDAXDEAAFQXFXQ
modifications: not fully specified; Ac-PL3-Asp-Ala-B5-Asp-Glu-Ala-Ala-Phe-Gln-S8-Phe-BztA-DGIn-NH2 (so in the source); read as D-Gln at position 14); N-terminal acetyl, C-terminal amide; stapled PL3-B5 and B5-S8
notes: Stapled peptide composition
B9: I-491 (peptide)
peptide: XDAXDEAAFQXFXS
modifications: not fully specified; Ac-PL3-Asp-Ala-B5-Asp-Glu-Ala-Ala-Phe-Gln-S8-Phe-BztA-Hse-NH2; N-terminal acetyl, C-terminal amide; stapled PL3-B5 and B5-S8
notes: Stapled peptide composition
B10: I-493 (peptide)
peptide: XDAXDEAAFQXFXS
modifications: not fully specified; Ac-PL3-Asp-Ala-B5-Asp-Glu-Ala-Ala-Phe-Gln-S8-Phe-BztA-DSer-NH2; N-terminal acetyl, C-terminal amide; D-Ser at position 14; stapled PL3-B5 and B5-S8
notes: Stapled peptide composition
B11: I-498 (peptide)
peptide: Ac-[αAllylPro]DA[B5(6)][hSer]EAAFQ[S8]F[Bta]Q-NH2
modifications: staple 1-4, 4-11; not fully specified; printed as Ac-PL3-Asp-Ala-B5-Hse-Glu-Ala-Ala-Phe-Gln-S8-Phe-BztA-Gln-NH2
notes: Stapled peptide composition
B12: I-496 (peptide)
peptide: Ac-[αAllylPro]DA[B5(6)][hSer]EAAFQ[S8]F[Bta]Q-NH2
modifications: staple 1-4, 4-11; not fully specified; printed as Ac-PL3-Asp-Ala-B5-Hse-Glu-Ala-Ala-Phe-Gln-S8-Phe-BztA-Gln-NH2
notes: Stapled peptide composition
B13: I-492 (peptide)
peptide: XDAXDEAAFQXFXS
modifications: not fully specified; Ac-PL3-Asp-Ala-B5-Asp-Glu-Ala-Ala-Phe-Gln-S8-Phe-BztA-Hse-NH2; N-terminal acetyl, C-terminal amide; stapled PL3-B5 and B5-S8
notes: Stapled peptide composition
B14: I-497 (peptide)
peptide: Ac-[αAllylPro]DA[B5(6)][hSer]EAAFQ[S8]F[Bta]Q-NH2
modifications: staple 1-4, 4-11; not fully specified; printed as Ac-PL3-Asp-Ala-B5-Hse-Glu-Ala-Ala-Phe-Gln-S8-Phe-BztA-Gln-NH2
notes: Stapled peptide composition

Molecular target: T1, full-length beta-Catenin (Uniprot ID …)
Assay: fluorescence polarization competition; full-length beta-catenin with 5FAM-labelled TCF4 10-53 peptide as competitor
Procedure: (§1) The plate was incubated protected from light for 60 minutes at 20° C. prior to read. Reads were performed on a CLARIOstar plate reader (BMG Labtech) in duplicate, and data were fitted to a 1:1 binding model with hill slope using an in-house script. All provided concentrations are final concentrations.

EC50 [nM] | Binder
5000 | B1
5000 | B2

Molecular target: T2, full-length beta-Catenin (Uniprot ID …)
Assay: fluorescence polarization competition; displacement of 5FAM-TCF4(10-53) from full-length beta-catenin
Procedure: as §1

EC50 [nM] | Binder
62 | Ac-[αAllylPro]DI[B5(6)]DEAAFN[S8]F[Bta]H-NH2 (staple 1-4, 4-11, Stapled peptide composition) [I-472]
27 | B3
11 | Ac-[αAllylPro]DI[B5(6)]DDAAFN[S8]F[Bta]H-NH2 (staple 1-4, 4-11; also: separate HPLC peak/isomer composition from I-469, Stapled peptide composition) [I-470]
71 | B4
102 | B5
181 | B6
48 | B7
52 | Ac-[αAllylPro]DI[B5(6)]DEAAFQ[S8]F[Bta]H-NH2 (staple 1-4, 4-11, Stapled peptide composition) [I-471]
82 | B8
119 | Ac-[αAllylPro]DT[B5(29)]DEAAFQ[S8]F[Bta]Q-NH2 (staple 1-4, 4-11, Stapled peptide composition) [I-477]
153 | B9
88 | B10
5000 | B11
5000 | B12
53 | B13
5000 | B14

Molecular target: T1, full-length beta-Catenin (Uniprot ID …)
Assay: AlphaScreen competition; full-length beta-catenin with biotin-labelled TCF4 10-53 peptide as competitor
Procedure: as §1, with “Equal volume of the titrated peptide was added to the” for “The”, “and” for “was”, “incubated for 15 minutes at 20° C. Then 4 uL of donor and 4 uL acceptor beads at 10 ug/mL were added to the plate, for a 16 uL reaction pool and” for “incubated”

EC50 [nM] | Binder
318 | B1
859 | B2
